This is an account of results in US20190194280A1.

The target of test [1] is Serum samples collected at week 16 from patients immunized with UBI AD vaccine (UB-311). Nature of the test: comp. ELISA, serum P209.
Test [2] has the same target. Nature of the test: comp. ELISA, serum P103.
Test [3] shares this target. Nature of the test: comp. ELISA, serum P109.
Test [4] shares this target. Nature of the test: comp. ELISA, serum P108.
Test [5] has the same target. Nature of the test: comp. ELISA, serum P105.
Test [6] has the same target. In words: comp. ELISA, serum P101.
For test [7] the target is unchanged. In words: comp. ELISA, serum P208.
The target is the same in test [8]. In words: comp. ELISA, serum P104.
For test [9] the target is unchanged. In words: comp. ELISA, serum P201.
For test [10] the target is unchanged. In words: comp. ELISA, serum P205.
For test [11] the target is unchanged. Nature of the test: comp. ELISA, serum P106.
Test [12] shares this target. Nature of the test: comp. ELISA, serum P107.
Test [13] has the same target. Nature of the test: comp. ELISA, serum P102.
For test [14] the target is unchanged. In words: comp. ELISA, serum P203.
The target is the same in test [15]. In words: comp. ELISA, serum P204.
Test [16] shares this target. Nature of the test: comp. ELISA, serum P210.
The target is the same in test [17]. Nature of the test: comp. ELISA, serum P207.
The target is the same in test [18]. Nature of the test: comp. ELISA, serum P206.
The target is the same in test [19]. Nature of the test: comp. ELISA, serum P202.

In the case of EVHHQKLVFF [Aβ11-20 or APP 770 (E682-F691)], the IC50-based peak height in [1], in test [2], in [3], in test [4], in test [5] and in [6] was 0 each time. Also, the IC50-based peak height in [7], in [8], in test [9], in test [10], in [11] and in [12] was 0 throughout. The IC50-based peak height in test [13], in test [14], in test [15], in [16], in test [17] and in test [18] was 0 in each case. Further, the IC50-based peak height in [19] was found to be 0.
For HHQKLVFFAE [Aβ13-22 or APP 770 (H684-E693)], the IC50-based peak height in [1], in test [2], in test [3], in [4], in test [5] and in test [6] was 0 throughout. The IC50-based peak height in test [7], in [8], in test [9], in [10], in [11] and in test [12] was 0 in each case. Also, the IC50-based peak height in [13], in test [14], in [15], in test [16], in test [17] and in [18] was 0 each time. For the same molecule, in test [19], the IC50-based peak height was 0.
On to DSGYEVHHQK [Aβ7-16 or APP 770 (D678-K687)], for which the IC50-based peak height is 0 in test [1]; 0 in test [2]; 0 in test [3]; 0 in test [4]; 0 in test [5]; 214 in test [6]. For the same molecule, the IC50-based peak height in [7], in test [8], in [9], in test [10], in [11] and in [12] was 0 each time. Besides, the IC50-based peak height in test [13], in [14], in [15], in test [16], in test [17] and in test [18] was 0 in each case. The IC50-based peak height in [19] came to 0.
On to YEVHHQKLVF [Aβ10-19 or APP 770 (Y681-F690)], for which the IC50-based peak height in test [1], in test [2], in test [3], in test [4], in [5] and in [6] was 0 throughout. Besides, the IC50-based peak height in test [7], in test [8], in [9], in [10], in test [11] and in test [12] was 0 throughout. Also, the IC50-based peak height in test [13] stood at 0; in [14], 0; in [15], 0; in test [16] it was 0; in test [17], 10; in [18] it was 0. This molecule returned an IC50-based peak height in test [19] of 0.
For the molecule HDSGYEVHHQ [Aβ6-15 or APP 770 (H677-Q686)], the IC50-based peak height in test [1], in [2], in test [3], in [4], in test [5] and in test [6] was 0 each time. Also, the IC50-based peak height in test [7], in test [8], in test [9], in test [10], in test [11] and in [12] was 0 in each case. The IC50-based peak height in test [13], in test [14], in [15], in [16], in test [17] and in [18] was 0 each time. In test [19], this molecule showed an IC50-based peak height of 0.
For the molecule SGYEVHHQKL [Aβ8-17 or APP 770 (S679-L688)], the IC50-based peak height in test [1], in test [2], in test [3], in test [4], in [5] and in test [6] was 0 in each case. For the same molecule, the IC50-based peak height in [7], in test [8], in [9], in test [10], in test [11] and in test [12] was 0 each time. In addition, the IC50-based peak height in test [13], in test [14], in test [15], in [16], in [17] and in [18] was 0 throughout. This molecule displayed an IC50-based peak height in [19] of 0.
As for GYEVHHQKLV [Aβ9-18 or APP 770 (G680-V689)], the IC50-based peak height in test [1], in test [2], in test [3], in test [4], in test [5] and in [6] was 0 throughout. For the same molecule, the IC50-based peak height in [7], in test [8], in test [9], in test [10], in [11] and in test [12] was 0 throughout. Besides, the IC50-based peak height in test [13] turned out to be 0; in [14], 0; in test [15], 0; in [16], 0; in test [17], 16; in test [18] it was 0. This molecule yielded an IC50-based peak height in test [19] of 0.
For VHHQKLVFFA [Aβ12-21 or APP 770 (V683-A692)], the IC50-based peak height in test [1], in [2], in test [3], in [4], in test [5] and in test [6] was 0 throughout. The IC50-based peak height in test [7], in test [8], in [9], in [10], in [11] and in [12] was 0 each time. In addition, the IC50-based peak height in test [13] was 0; in test [14] it was 0; in test [15], 0; in test [16], 0; in test [17], 27; in [18], 0. This molecule also had an IC50-based peak height in test [19] of 0.
